Experimental data: the DeepSol protein solubility set

Assay: soluble on expression in E. coli; label from the status in PepcDB or PDB records

Row | Sequence | soluble on expression in E. coli
1 | MSLSQIVAEVDGYKVTKEELDTLFHVFWKRITHLSSAKPTQEDKRIFLIDYVADLLILKEAKKMGIEVSEKEINDFIRKYVGRKIKEKSVINAVKAEILVEKLVDKLMKEQELNPSEDILRAYYEFYKREFYRPSSVKLLGIYVKSKKEAERISQILKQGEVPSTEDVKVSKPLWYSIPTLPKYIRRNFRTLSVGEVSKPIKINDGYLVFKILDKKEGHHHHHH | soluble
2 | MAKNAPRFVCQACGAVYPRWMGRCEACGEWNSIAEEAPAEALPKGQTGGRGGQRLSFVSLEGVGAPPPRLLTGIPELDRVAGGGLVAGSALLIGGDPGIGKSTLLLQAVAGLARGGARSVYISGEEAIDQVRLRALRLGLEKAPVDLAAATSVRDIVATLDSGEPPDVVVIDSIQTMYLDTLDSAPGTVAQVRAGSHELIRLAKRRGFVLFLVGHVTKEGQMAGPRVMEHMVDAVIYFEGERGHPFRILRAVKNRFGATDEIGVFEMSDAGLSEVPNPSALFLAERRGNVTGSCVFAGMEGTRPMLVEIQALVGPSAPGSARRAVVGWDGGRLAMVMAVLETRCGLALGGNDVYLNVAGGLRIGEPAADLAVAAALVSSFSGVPVPPDMVVFGEIGLSGEIRAVAHGDTRLKEAAKLGFDQALMPARPRDSGKRGGPGVKEGLRMREIGHLQDLVALLAPPENAGQGQRLEHHHHHH | soluble
3 | MPRVGIITSDFKFYHDVIKQLRLWKIPFVSLDLKGNIPDDVVVILSSIRDDIDLPDQVKAQDGLDGIRRAIPRLLNKTMFKDLTIGIDPGPKPGIAVFGDDVLLEAFECPTVFSVRKFVDSISMSYSYENITIKIGNGDRPNRDIIMNRLSDVDISIEVVNEKNTSTPHKIHDNALSAARIAQINGLYPIKRIPVKFSRKNVYEKEFVTLKNVIENAAGTEGRSSNST | not soluble
4 | MGSDKIHHHHHHMKLLVTGATGKLGTKIVEHLLTKIEAENVIVSVRDPKKANELASRGIEVRHGDFDEPDTLQQAFAGVDRLLIISTDGEEATRIRQHTAAVEAAKAAGVGLIAYTSIANAEASQNFLARTHQVTEQLIRETGIPFLFFRNNWYLENEQSTIDAVRAGQDWLTSAGNGTVGWALQEDYAEAIATVLVDPKPTKSIYELSGPLHTQQDIAEALGQVLGRPVQVKQVDSATYTAIMQQAGVPEFLLPMLQAIQEGIAAGTLAVESQDFEHILDRPPVSLEDGLRQLVQR | not soluble
5 | MAFKGYPVIDKDGNIYAGNQDGQLYAYTSTGSLKWTFPLNGFSSSSPAIDHNGNIYIGSGSGELFSISKNGDMNWSFYTDGPVRTAPLIDAKGTVYFGSDDMKVYAADANGNELWSYQTDSNVVSSPQLAEDGTLEHHHHHH | not soluble
6 | MGSDKIHHHHHHMIQADEVAERRLMNIPISGGQHGLFERLFAELRPKLHRYCARMTGSVFDGEDVLQETLAKAIEALPGAGPIANPEGWLFRIAHNAALDFLRRRAREQAYSDEDLDMIVDPANPTIDRQAASAGLHTFMRLPVTQRSSVIMMDVLGYSLQEISAMLDTSIPAVKAALHRGRDRLRQIANEPHDRPLPRLGAAERQLLNAYIDRFNARDFDAVRDMLAEEVRLELVAKTRLNGREEVGTYFGNYSRAQDWHLVPGFVENRPAILVHDLNDPATRPAYFIVLAWHDGRLAAIGDFRHARYVADSADMHAL | not soluble
7 | MAASAAATAAASAATAASAASGSPGSGEGSAGGEKRPAASSAAAASAAASSPAGGGGEAQELLEHCGVCRERLRPERDPRLLPCLHSACSACLGPATPAAANNSGDGGSAGDGAMVDCPVCKQQCYSKDIVENYFMRDSGSKASSDSQDANQCCTSCEDNAPATSYCVECSEPLCETCVEAHQRVKYTKDHTVRSTGPAKTRDGERTVYCNVHKHEPLVLFCESCDTLTCRDCQLNAHKDHQYQFLEDAVRNQRKLLASLVKRLGDKHATLQKNTKEVRSSIRQVSDVQKRVQVDVKMAILQIMKELNKRGRVLVNDAQKVTEGQQERLERQHWTMTKIQKHQEHILRFASWALESDNNTALLLSKKLIYFQLHRALKMIVDPVEPHGEMKFQWDLNAWTKSAEAFGKIVAERPGTNSTGPGPMAPPRAPGPLSKQGSGSSQPMEVQEGYGFGSDDPYSSAEPHVSGMKRSRSGEGEVSGLLRKVPRVSLERLDLDLTSDSQPPVFKVFPGSTTEDYNLIVIERGAAAAAAGQAGTVPPGAPGAPPLPGMAIVKEEETEAAIGAPPAAPEGPETKPVLMPLTEGPGAEGPRLASPSGSTSSGLEVVAPEVTSAPVSGPGILDDSATICRVCQKPGDLVMCNQCEFCFHLDCHLPALQDVPGEEWSCSLCHVLPDLKEEDGSLSLDGADSTGVVAKLSPANQRKCERVLLALFCHEPCRPLHQLATDSTFSMEQPGGTLDLTLIRARLQEKLSPPYSSPQEFAQDVGRMFKQFNKLTEDKADVQSIIGLQRFFETRMNDAFGDTKFSAVLVEPPPLNLPSAGLSSQELSGPGDGP | soluble
8 | MLDFAAIDFETANAERTSVCSVGIIVVRGGQIVHRYYSLIRPEPDYYNYHNTRVHGLTAADTESARIFPDVWAEVEPLIAGLPLVAHNKPFDEGCLKAVFRMYRMDYPDYPFFCTLQAARRQLRHLSDHRLPTVAQCCGYTLAQHHQALADAEACAAIALKLL | not soluble
9 | MKLAVLGTGMIVKEVLPVLQKIDGIDLVAILSTVRSLTTAKDLAKAHHMPLATSKYEAILGNEEIDTVYIGLPNHLHFAYAKEALLAGKHVICEKPFTMTAGELDELVVIARKRKLILLEAITNQYLSNMTFIKEHLDQLGDIKIVECNYSQYSSRYDAFKRGDIAPAFNPKMGGGALRDLNIYNIHFVVGLFGRPKTVQYLANVEKGIDTSGMLVMDYEQFKVVCIGAKDCTAEIKSTIQGNKGSLAVLGATNTLPQVQLSLHGHEPQVINHNKHDHRMYEEFVAFRDMIDQRDFEKVNQALEHSRAVMAVLERAVHS | not soluble
10 | MATALNPGRTSAPTPEAAPKLRFDARRYLGTPAVRRIKDEVEIELADRAYLPDLNDLKRDWVASVAAPAFRVLARNRATPPRAFASIGTGSGVDALAAIELLGAEIVGITDLFEEVVATAARNVRGNVRPEAGITLHAGAGDLLIPLAPAGVKFDVIYENLPNLPVDDSRKIEADKTSAAFLAPRSEAIPVFITDWLLTMHYLALVQARDALTPDGVVLSTVGARVPLDVLAQMSRAAGLVPRVLTYGWKVQADADDVISTYANWERQGLGPFRFYAADALEAAFANLDPGEAGANAATIEASLAGEQLGAVAAWEAHRSGLRIGHTYVVLQSGLGLEHHHHHH | soluble
11 | MGSDKIHHHHHHMSEQVRSLSEFTAEVEAMTAAMMTEEPQEIASMRCGEMENTAGSYGQYFGTWDIAHGMLRDYSMYTLYPITALAEDAEMDLTSLSKTVDALDPAYSNYLRYSGFPRMGKLAVELRGLIRASTSRSDIVAALRAFTAYTNRLQAWSFHYFPWGLGKHFRYDEARLQDAPLPVADLGATRACITCGQRIRISWEPLGITVNATLASEENPELCADVVAALPFTVIQDHAVVTGESMYAWTPVLSTAPIHLRERICDAPVGRLRYSQSTGQKFIVQYGPTTEDLSQPVLGEIDAADAGKLEQVGRAVWDSTFDNKQLIWMTVELA | not soluble
12 | MLVQGAGGNTSIKQAGVLWIKASGTWLKNARDDEIMVPVALAPLLDAVSHRSPAAEAAGQFTLADLNPRQLRPSIETTVHALLPQKIVVHVHCVETISIAVQANAEALLEGRLRGLDWAFVPYRRPGLPLAQAIAERLKPATNVLVLGNHGLVVAADTVAEAALLLQRVTGLLARQPRPAPPPDLDALLRLAAGSDYRLPALEHHHHHH | soluble
13 | MTKSKSKKEDLIPEIGDFTKFFKSRSKFSDQITDVISNVYEWSTSLEPSEDNLPLPFVSKNEEVVWSYLKHQNKQLDGINKKYKGFLSELIGKSHIRVAAKIQDSEGSEDGSDGSDGGSEEELDDDEEELEDEELEDEMIDDEDEADLFNLSESDLKTLDADLKKMEEEEAGEEKEEVEKATEQPKKFKKSIVDDQFFNLDEMHDFLQKTERAGGKKAAQDEEMMFEDEDSWDGKTDYTYEDFFGSRETVAETEKMNGEKKKIEKDKKRKAGDKADLSLDDGKNKKRVRFAMDEEPEEEEVEDEEQEDINDEEEPPEDEPVLLGADLEEPKEESAFAKRQSKMKERIAKLEEENLAPKSWELSGEVAADQRDQNTLLEKHVDFDHGAKRAPEVTEEFTDRLESLIKQRIRDKAWDDVIRVKKVEAKGAKFETEAIENQMNQKTSLAEVYEKEYQNSTGNSADGAAGATKPNEAHEAIKSKMGDLFRLIDALTHFEYKPDQAREEVKVVSNMAALRVEEVGITASTEAQLMAPEEISKKMKAIEKSKDERDATDKARERRQKKAKQRSMLEKFGEERVFGEQKAVKLAKKERKAGKEKGGGVDKIKSSNFFAKLQETVAAEKKDGAVTKKKKKIVKRLKSDKNSAAIKL | not soluble
14 | MGSDKIHHHHHHMTEKKTMLEKLKKLMHHFTLSLDDISVETSRARQLSIRTEIDRLRSNERYKEPKSLIPFGGKIYSQNDEDGIIREIFNRIGTTNKVFVEFGIGNGLENNTLALLFEDWQGLWIDASSDSITSIRNHFSEIIGSGKLAVVESFITKANIDNLIATNVKHREIDLLSVDIDGNDYHVLQAISCITPRVIVIEYNAKFAPPVLFCMDYTETHMWTGDDCFGASLKFLETNLNKMGYCLVGCNLTGANAFFIRRELVTNKFLEPFTAENHFEPARYYLSGYASGHTPTYETLARSLTMRVS | not soluble
15 | MGSDKIHHHHHHMNLVAHAQNTEPFEGVMKWAITVDIVDSKVADSYQTEIQSEDNSEVNQAIKELEQQLKDPEMQEMLLENPTIKNSMLKKLQQLKAAQTTNQENSTNSIFPSALSIFLKNNNSFTKIDGGSMVKLTGNMLYLNTNKNTYFIKDKTSTYSVINDTARLNTNDSLIALIATTDTTMILDCICIKYILTTKENNEIKTSYIWITNDLPSMNSAAFRSLGFMDGNLHHEAFKEMKGIPMRIEIFEKGLKMNMEVSEISMELVADTYFTIPSNYRESPFGF | not soluble
16 | PEIKDHLIMVGFGFSGKTISKAAKAAGIPYIILETNPDIVKQEKTKGERIQYGDATFGAVQEHAGIRNARVLITGISDSVATRKIVEKAKELNPNIYVIAKVRNLQEMKHLHHLGADEIIPEEYETSVEIFVRLLEKYLV | not soluble
17 | MDKKELVEKIALNTLVFETLGQPEKEREFTIQDLRRWGFDLILGKKNGVRTFFASQAGREVGDKWEEGGATYEIEEILLELPENKKLFAHIETSEGVAYIVAELREGKENLEILRTPAPTLLMAFFKKHRLHELANNLKSVGVITEFYKQRGRESLPLPYKKLPLVARDFLERAKKVEKMAGFGRVALAYFGKTREKDNRFRVSWLLPTIALFDIDISEKANTALEEFK | soluble
18 | MSLNGKNLTLNVPVTAAVPGARGIKADCITDGACTESSTYFQKSSNAATGSPYMFTIDMQKEAVISEINLSTRLVNGSEAAYKYTIEGSRDGKSYKMLVDGKLNWQVGFLILNIEDPSLYRYLRLRVYGVVNVHKNNSAMWADGIYEFAAYGKEGHHHHHH | not soluble
19 | MLVMIDTKRPPVYIDSQVGLNTFFFIRGQYPSLNLFVSFITTVKTLGNNVSRTHGDDAESDCVCDSVSNVDENNEVVDEQDDVEDDKTDEDEEEGDNEDGDGYDAY | not soluble
20 | MGNVMEGKSVEELSSTECHQWYKKFMTECPSGQLTLYEFRQFFGLKNLSPSASQYVEQMFETFDFNKDGYIDFMEYVAALSLVLKGKVEQKLRWYFKLYDVDGNGCIDRDELLTIIQAIRAINPCSDTTMTAEEFTDTVFSKIDVNGDGELSLEEFIEGVQKDQMLLDTLTRSLDLTRIVRRLQNGEQDEEGADEAAEAAG | not soluble
21 | MSMAMSQSNRELVVDFLSYKLSQKGYSWSQFSDVEENRTEAPEGTESEAVKQALREAGDEFELRYRRAFSDLTSQLHITPGTAYQSFEQVVNELFRDGVNWGRIVAFFSFGGALCVESVDKEMQVLVSRIAAWMATYLNDHLEPWIQENGGWDTFVELYGNNAAAESRKGQERLEHHHHHH | soluble
